Laboratory results: patent US20180127480A1

Assays:
[1] = target: biotinylated human SIRPα allele 2 domain 1 (a2d1) (human) (UniProt P78324); test: SPR, Biacore T100, biotinylated SIRPα on SA chip, 25 C, 1:1 Langmuir model
[2] = target: biotinylated human SIRPα allele 1 domain 1 (a1d1) (human) (UniProt P78324); test: as above
biotinylated human SIRPα allele 1 domain 1 (a1d1) (human), sequence (P78324 other isoform, or with tags, fused parts or gaps): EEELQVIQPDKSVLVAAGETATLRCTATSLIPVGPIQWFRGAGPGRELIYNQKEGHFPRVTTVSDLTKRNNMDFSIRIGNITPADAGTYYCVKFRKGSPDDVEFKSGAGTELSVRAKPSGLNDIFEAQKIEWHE

biotinylated human SIRPα allele 2 domain 1 (a2d1) (human), sequence (P78324 other isoform, or with tags, fused parts or gaps): as above

Kd [1]: 1.1 nM
Kd [2]: 0.296 nM
B1: high affinity CD47 variant N363 C15G (designed binder)
chain: WQLPLLFNKTKSVEFTFGNDTVVIPCFVTNMEAQNTTEVYVKWKFKGRDIYTFDGDKNKSTVPTDFSSAKIEVSQLLKGDASLKMDKSDAVSHTGNYTCEVTELTREGETIIELKYRVVSHHHHHHHH
